Assays:
[1] = target: RNA polymerase II CTD CTD (UniProt P24928); settings: cited from earlier work
[2] = target: biotinylated 4-heptad RNA polymerase II CTD peptide, Ser2 phosphorylated on all heptads; assay: pull-down on streptavidin-coupled Dynabeads, SDS-PAGE stained with Coomassie Blue, band quantification; settings: biotinylated peptides of four CTD heptads; triplicate; parent: est. 1.0; read off a plot
[3] = target: biotinylated 4-heptad RNA polymerase II CTD peptide, Ser5 phosphorylated on all heptads; assay: as above; settings: biotinylated peptides of four CTD heptads; triplicate; parent: est. 1.0; read off a plot
[4] = target: biotinylated 4-heptad RNA polymerase II CTD peptide, Ser5 phosphorylated on all heptads

human capping enzyme (CE/RNGTT) GTase with the disordered flanking regions (211–597), wild-type, O60942 R358A; K403A; R411A, sequence (O60942 211-597 R358A/K403A/R411A): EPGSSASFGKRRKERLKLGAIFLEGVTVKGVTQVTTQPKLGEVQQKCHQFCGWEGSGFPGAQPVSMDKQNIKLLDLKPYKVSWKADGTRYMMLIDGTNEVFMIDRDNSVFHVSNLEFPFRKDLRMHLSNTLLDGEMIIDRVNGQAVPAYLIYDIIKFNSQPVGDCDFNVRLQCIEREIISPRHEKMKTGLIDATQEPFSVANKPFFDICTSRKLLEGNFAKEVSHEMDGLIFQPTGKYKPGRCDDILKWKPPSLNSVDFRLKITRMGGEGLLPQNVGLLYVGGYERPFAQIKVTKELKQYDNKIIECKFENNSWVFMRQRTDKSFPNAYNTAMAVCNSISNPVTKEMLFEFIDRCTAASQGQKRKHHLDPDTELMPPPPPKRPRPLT
human capping enzyme (CE/RNGTT) GTase with the disordered flanking regions (211–597), wild-type, O60942 R330A; K331A; R386A, sequence (O60942 211-597 R330A/K331A/R386A): as the sequence (O60942 211-597 R358A/K403A/R411A) above, with R120A, K121A, A148R, R176A, A193K, A201R counted along it
human capping enzyme (CE/RNGTT) GTase with the disordered flanking regions (211–597), wild-type, O60942 R330A; K331A; R386A; R358A; K403A; R411A, sequence (O60942 211-597 R330A/K331A/R358A/R386A/K403A/R411A): as the sequence (O60942 211-597 R358A/K403A/R411A) above, with R120A, K121A, R176A counted along it
mRNA capping enzyme GTase, sequence (O60942 229-597): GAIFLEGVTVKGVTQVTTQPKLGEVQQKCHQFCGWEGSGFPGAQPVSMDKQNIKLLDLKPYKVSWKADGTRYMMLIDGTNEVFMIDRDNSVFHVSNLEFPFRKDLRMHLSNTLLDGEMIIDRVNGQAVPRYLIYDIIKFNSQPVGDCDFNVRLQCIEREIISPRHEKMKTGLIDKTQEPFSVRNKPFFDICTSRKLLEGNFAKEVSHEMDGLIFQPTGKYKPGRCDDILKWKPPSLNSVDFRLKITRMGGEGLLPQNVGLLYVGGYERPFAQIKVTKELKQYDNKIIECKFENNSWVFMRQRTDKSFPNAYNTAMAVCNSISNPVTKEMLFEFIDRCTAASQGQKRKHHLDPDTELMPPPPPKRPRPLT
RNA polymerase II CTD CTD, sequence (P24928 1593-1970 A1835T): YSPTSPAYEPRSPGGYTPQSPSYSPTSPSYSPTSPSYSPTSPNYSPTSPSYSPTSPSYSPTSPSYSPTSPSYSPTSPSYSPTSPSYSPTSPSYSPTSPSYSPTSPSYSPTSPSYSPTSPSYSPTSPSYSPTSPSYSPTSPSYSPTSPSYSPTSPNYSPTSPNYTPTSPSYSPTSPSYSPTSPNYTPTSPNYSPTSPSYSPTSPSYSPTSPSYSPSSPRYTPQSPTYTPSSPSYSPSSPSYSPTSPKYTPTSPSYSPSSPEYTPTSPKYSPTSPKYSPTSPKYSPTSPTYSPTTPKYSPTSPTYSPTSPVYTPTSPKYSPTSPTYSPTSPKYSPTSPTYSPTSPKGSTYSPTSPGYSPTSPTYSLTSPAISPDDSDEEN
human capping enzyme (CE/RNGTT) GTase with the disordered flanking regions (211–597), wild-type, sequence (O60942 211-597): as the sequence (O60942 211-597 R358A/K403A/R411A) above, with A148R, A193K, A201R counted along it

ratio to parent [2]	ratio to parent [3]	Substance	also measured
		mRNA capping enzyme GTase (from UniProt O60942)	Kd [1]: 139 µM
0.035	0.03	human capping enzyme (CE/RNGTT) GTase with the disordered flanking regions (211–597), wild-type, O60942 R330A; K331A; R386A; R358A; K403A; R411A	
		human CE GTase (211–597) ΔCDS1 (R330A/K331A/R386A) (from UniProt O60942 211-597) (domain or fragment)	guanylyltransferase activity (32P-GMP bound to the GTase), 0-10 μM 4-heptad pSer5 CTD peptide, relative to basal activity [4]: 1.4 fold
		human capping enzyme (CE/RNGTT) GTase with the disordered flanking regions (211–597), wild-type (from UniProt O60942 211-597) (domain or fragment)	guanylyltransferase activity (32P-GMP bound to the GTase), 0-10 μM 4-heptad pSer5 CTD peptide, relative to basal WT activity [4]: 2.2 fold
0.12	0.18	human capping enzyme (CE/RNGTT) GTase with the disordered flanking regions (211–597), wild-type, O60942 R358A; K403A; R411A	
0.2	0.43	human capping enzyme (CE/RNGTT) GTase with the disordered flanking regions (211–597), wild-type, O60942 R330A; K331A; R386A	
